# Data published in the nanobody polyreactivity screen of Harvey et al. (2022).
# Assay: yeast display, Sf9 membrane polyspecificity reagent, FACS + sequencing; frameworks hold sequencing errors
# How it was run: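 In a synthetic yeast display library (Saccharomyces cerevisiae BJ5465), nanobody expression was induced with galactose for 36–48 hours. FACS gates were set low and high (top ~1%) using anti-HA fluorescence for expression and streptavidin fluorescence for binding of the Sf9 membrane reagent. Each polyreactivity label is drawn from the gate of origin.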
row,Sequence,polyreactivity (PSR sort gate)
1,QVQLVESGGGLLQAGGSLRLTCAASGSIFRYYSMGWYRQAPGKERELVASINSCGSTYYADSVKGRFTISRDNAKNTVYLQMKSLKPEDSAVYYCAAETSFYYRGYWKSYDYWGQGTQVTVSA,high polyreactivity
2,QVQLVESGGGLLQAGGSLSLSCAASGGIFYYNAMGRYRQAPRKERELVAANTFSGGSTNYADSVKGRFTISRDNAKNTVYLQMNSLKPEDTAVYYGNARRGYGGGYDYWGQGTQVTVSS,high polyreactivity
3,QVQLVESGGGLLQAGGSLSLSSAASGITCDLYDMGWYRQAPGKERELVAAITDAHSTYYADSVKGRFTNSRDYAKNTVYLQMNSLKPEDTAVYYCAADWYLYLDDKYDYWGQGTQVTVSS,low polyreactivity
4,QVQLVESGGGLLRAGGSLRLICADSAFVNYVMGWYRQAPGKERELVAAISKGGGRTYYADSVKGRFTISRDNAKNTVYLQMNSLKPEVTAVYYCNADGGLPKYDYWGQGTQVTVSS,high polyreactivity
5,QVQLVESGGGLVEAGGSLRLICAASGFIFLSNGMGWYRQGPGKERELVAAISSSGGSTYYADSVKGRFTISRDNAKNTVYLQMNSLKPEDTAVYYCAAEQYSVYETGSYDYWGQGTQVTVSS,low polyreactivity
6,QVQLVESGGGLVEAGGSLRLSCAASGGIFKIYSMGWYIQAPGKERELVAGINWSDTGTYYADSVKGRFTISRDNAKNTVYLQMNSLKPEDTAVYYCAVSGYPVYITYVSYDYDYWGQGTQVNVSS,low polyreactivity
7,QVQLVESGGGLVEAGGSLRLSCAASGGTFKLYAMGWYRPAPGKERELVAAISRRGGSTYYADSVKGRFTISRDNAKNTVYLQMNSLKPDDTALSNCAAPGPTQSTQRGGYWGQGTQVTVSS,high polyreactivity
8,QVQLVESGGGLVEAGGSLRLSCAASGGTFLRYAMGWSIQAPGKERELVAAITYRNGRTYYADSVKGRFTISRDNAKNTVYLQMNSLKPEDTAVYYCAADSTPRGNPAYDYYYWGQGTQVTVSS,high polyreactivity
9,QVQLVESGGGLVEAGGSLRLSCAASGRIFGRNAMGWYRQAPGKERELVAGISSGGTTDYADSVKGRFTISRDNAKNTVYLQMNSLKPEDTAVYYCNVGYAYDDQTYYLGESDYWGQGTQVTVSS,low polyreactivity
10,QVQLVESGGGLVEAGGSLRLSCAASGRIFRYNAMGWYRQAPGKEWELVAAITASGGRTYYADSVKGRFTISRDNAKNTVYLQMNSLKPDDTAVYYCAATAFDKLKVWYSYWRQGTQVTVSS,high polyreactivity
11,QVQLVESGGGLVEAGGSLRLSCAASGRIFTYYAMGWYRQAPGKERELVASISRSGGNTYYADSVKGRFTISRDNAKNTVYLQMNSLKPEDTAVYYCDAVYSRLDYWGQGTQVTVSS,high polyreactivity
12,QVQLVESGGGLVEAGGSLRLSCAASGRTFDYNAMGWYRQAPGKERELVAAISRGGSTYYADSVKGRFTISRDNPNNSVYLQMNSLKPEDTAVYYCAALYVRVGYDYWGQGTQVTVSS,high polyreactivity
13,QVQLVESGGGLVEAGGSLRLSCAASGRTFRYYAMGWYRQAPGKVREFVAAISTSGGRTYYADSVKGRFTISRDNAKNTVYLQMNSLKPEDTAVYYCAAVSAPRFGMDYLGQGTQVTVSS,high polyreactivity
14,QVQLVESGGGLVEAGGSLRLSCAASGSIFARYAMGWTRQAPGKERELVAAITSRGGSTYADSVKGRFTISRDNAKNTVFLQMISLIPEDTAVYYCAAATLWYYRYWTSYDYWGQGTQVTVSS,high polyreactivity
15,QVQLVESGGGLVEAGGSLRLSCAASGSTFGVNAMGWSRQAPGKERELVAVITRSGGSTYYADSVKGRFTISRDNAKNTVYLQMNSLKPEDTAVYYCAKSGVVDWGQGTQVTVSS,low polyreactivity
16,QVQLVESGGGLVHAGASLRLSCAASGLTFRKYAKGWYRQAPGKERELVAAITGSGGRTYYADSVKGRFTISRDNAKNTVYLQMNSLQPEDTAVYYCAADDYFHDDYWGQGTQVTVSS,high polyreactivity
17,QVQLVESGGGLVHAGCSLPLTCAASGSTLDANAMGSYRQAPGKEMELVAAISSGGITYYADSVKGRFTFSRDNAKSTVYLQMNCLKPEDTAGYYCANRGQGFQFGRDYWGQGTQVTVSS,low polyreactivity
18,QVQLVESGGGLVHAGGRLRLSCAASGRTLAPYAMGWYRQAPGKERELVADIDRGGGSTYYADSVTGRFTISRDNAKNTVYLQMNSVKPEDTAVYYCYVDETGVLVAYTFDYWGQGTQVTVSS,low polyreactivity
19,QVQLVESGGGLVHAGGRLRLSCDASGSLFFWNTMGWYRQAPGKQRQLVAAITVSGGRTYYADSVKGRFTISRDNAKNSFYLQMYSLKPEDTAVYYCAADPYRLYGYASYTYWGQGTQVTVSS,high polyreactivity
20,QVQLVESGGGLVHAGGSHRLSCAASGLIFRRNPMGWYRQAPGKERELVAAISRTGGSTYYADSVKGSFTISRDNAKNTFYLQMNSMKPEYTAVYYCASDNRDYDYTYEYWGQGTQVTVSS,low polyreactivity
21,QVQLVESGGGLVHAGGSLGLICAASGFIFYRYAMGWYRQAPGKERELVAAISWSGGTTYYADSVKGRFSISRDNAKNTVYLQMNSLKPEDTAVYYCAATRLRTEYYWGHGTQVTVSS,high polyreactivity
22,QVQLVESGGGLVHAGGSLLLSCSASRSIFDLYAMGGYRQAPGKERELVADISIADSTNYADSVKGRFTISRDNAKNTVYLKMNSLKPEDTAVYYCKDDVWWYCYEYDYWGQGTEVTVSS,low polyreactivity

row,Sequence,polyreactivity (PSR sort gate)
1,QVQLVESGGGLVHAGGSLPLSCAASGRIFPGYAMRWYRQAPGKEREFVAAIRGTGTSTYYADSVKGRFTISRDNAKNTVYLQMNSLKPEDTAVYYCAASAGYAYNYWGQGTQVTVSS,low polyreactivity
2,QVQLVESGGGLVHAGGSLRLSCAASGFIFWRYAMGWYRQAPGKERELVATITSSGGTTHYADSVKGRFTISRDNAKNTVYLQMNSLKPEDTAVFYCATRNGVGSLFYSRNYWGQGTQVSVSS,high polyreactivity
3,QVQLVESGGGLVHAGGSLRLSCAASGFTFFKYAKGWYRQAPGKERELVATISIDGITNYADSVKGRFTISRHNAKNTVYLQMNSLKPEDTAVYYCHARSLYQQLGYWGQGTQVTVSS,low polyreactivity
4,QVQLVESGGGLVHAGGSLRLSCAASGFTFSYNARGWYRQAPGKERELVASITRSGGRTYYADSVKGRFTISRDNAKNTVYLQMNSLKPEDTGVYYCAAVWYPWLSSIFDYWGQGTQVTVSS,high polyreactivity
5,QVQLVESGGGLVHAGGSLRLSCAASGFTFYKNAMGWYRQAPGKERELVAAISADGGRTYYADSVKGRFTISRDNAKNTVYLQMNSLKPEDTGVYYCNARARRYTRLRWYAYVSDNDYWGQGTQVTVSS,high polyreactivity
6,QVQLVESGGGLVHAGGSLRLSCAASGFTSYENAMGWYRQAPGKEREFVAAISYIAGNTYYSDSVKGRFTISRDNAKNTVYLQMNSLKPEDTAVYYCAKTKYILPGNAYVNYDTTAYDYWGQGTQVTVSS,low polyreactivity
7,QVQLVESGGGLVHAGGSLRLSCAASGIILDYNAMGWYRQAPGKERELVAAITWSGSSTFYADTVKGRYTISHDNSKNTVYLQMNSLKPEDTAVYYCNADYFWGTYANFDYWGQCTQVTVSS,low polyreactivity
8,QVQLVESGGGLVHAGGSLRLSCAASGITFSRNTMGWYRQAPGKERELVAAITLRGGGRTYYADSVKGRFTISRDNAKNTVYLQMISLKPEDTAVYYCAARYLVTFGHQQRYFYWGQGTHVTVSS,high polyreactivity
9,QVQLVESGGGLVHAGGSLRLSCAASGITFYLYTMGWYRQAPGKERELVATITSGASTSYADSVKGRFTISRDNAKNTFYLQMNSLNPEDTAVYYCAARRTRVTGRYSVYAFDYWGQGTQVTVSS,low polyreactivity
10,QVQLVESGGGLVHAGGSLRLSCAASGLIFPRYAMGSYRQAPGKERELVAAISRSGGNTYYADSVKGRFTISRDNAKNTVYLQMNSLKPEDTAVYYCAAYFSTAPKSQYKLDYWGQGTQVTVSS,high polyreactivity
11,QVQLVESGGGLVHAGGSLRLSCAASGLIFYDNMGWYRQAPGKERELVAAISSSGGSTSYADSVKGRFTISRDNAKNTVYLQMNSLKPEDTAVYYCAAVSGPFVQTSGNGEYDYWGQGTQVTVSS,low polyreactivity
12,QVQLVESGGGLVHAGGSLRLSCAASGLTFVNYAMGWYRQAPGKERELVATISKTGGSTYYADSVKGRFTISRDNAKNTVFLQMNSLKPEDTAVYYCAVDAYYYKWYDYWGQGTQVSVSS,high polyreactivity
13,QVQLVESGGGLVHAGGSLRLSCAASGNIFRYNAMGWYRQAPGKERELVAAISSVGTTNYADSVKGRFTISRDNAKNTVYLQMNSLKPEDSAVYYCAAVAFQGGYWYDYWGQGTQVTVSS,low polyreactivity
14,QVQLVESGGGLVHAGGSLRLSCAASGNIITYNAMALYRQAPGKERELVAAITRGGNTNYADSVKGRFTISRDNAKNTVYLQMNSLKPEDTAVYFCAADRYVQLLGYFFEFDYWGQGSQVTVSS,low polyreactivity
15,QVQLVESGGGLVHAGGSLRLSCAASGRICGPYVMGWYRQAPGKERELVASITSSGGSPYYADSVKGRFTISRDNAKNTVYLQMNSLKPEDTAVYYWGQGTQVSVSS,low polyreactivity
16,QVQLVESGGGLVHAGGSLRLSCAASGRIFFRYAMGWYRQSPGKEREFVATITWSGGRTHYADSVKGRFTISRDNAKNTVYLQMNSLKPEDTAVYYCAASYHRYAFDYWGQGTQVTVSS,high polyreactivity
17,QVQLVESGGGLVHAGGSLRLSCAASGRIFQYYAMGWYRQAPGKERELVAAIDQSGDTTYYADSVKGRFTISRDNAKNTVYLQMNSLKPEDTAVFYCAAGYDWAYHWVPQWMYFWGQGTQVTVSS,low polyreactivity
18,QVQLVESGGGLVHAGGSLRLSCAASGRIFTPYAMGWYRQAPGKERELVAAISGRGGSTYYADSVKGRFTISRDNAKNTVYLQMNSLKPEDTAVYYCAATYFYVYDYWLDYWGQGTQVTVSS,high polyreactivity
19,QVQLVESGGGLVHAGGSLRLSCAASGRIFYPYTMGWYRQAPGKERELVAAISIRGTSTYYADSVKGRFTISRDNAKNTVYLQMNSLKPEDTAVYYCAALYVGYDYWGQGTQVTVSS,high polyreactivity
20,QVQLVESGGGLVHAGGSLRLSCAASGRIYRGNAMGWYRQAPGKERELVARITGNDGDTYYADSVKGRFTISRDNEKNTVYLQMKSLKPEDTAVYYCATDTSSYRSRYYYWGQGTQVTVSS,low polyreactivity
21,QVQLVESGGGLVHAGGSLRLSCAASGRTFNGNAMGWYRQAPGKERELVAVITGSGGSTYYADSVKGRYTISRDNAKNTVYLQMNSLKPEDTAVYYCNKKVQRRSWYDYWGQGTQVTVSS,low polyreactivity
